These results are taken from the supplement of paper PMC11811203.

B1: THAP1; numbered along this chain (parent)
chain: MVQSCSAYGCKNRYDKDKPVSFHKFPLTRPSLCKEWEAAVRRKNFKPTKYSSICSEHFTPDCFKRECNNKLLKENAVPTIFLCTEPHDKKEDLLEPQEQLPPPPLPPPVSQVDAAIGLLMPPLQTPVNLSVFCDHNYTVEDTMHQRKRIHQLEQQVEKLRKKLKTAQQRCRRQERQLEKLKEVVHFQKEKDDVSERGYVILPNDYFEIVEVPA

This series covers variants of B1. Nature of the series: THAP1 transcriptional activity (GFP+/GFP- enrichment relative to wild-type constructs) (ratio to WT); higher = more THAP1 activity (PSMB5 reporter activation). The following applies: with PSMB5 promoter-GFP reporter. The method, then:
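Deep mutational scan of human THAP1. Site-saturation single amino acid variant library (residues 2-213) was expressed by lentivirus at MOI ~0.3 in THAP1-knockout HEK-293T cells carrying an endogenous PSMB5 promoter-GFP knock-in reporter. Five days post-transduction, BFP+ cells were FACS-sorted into GFP dim and GFP bright populations and variants were counted by Illumina sequencing. Activity is the GFP-bright/GFP-dim read fold change, mean of 2 replicates, divided by the mean fold change of wild-type (synonymous) constructs in the same screen pool; WT = 1.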
Regarding MVQSCSAYGCKNRYDKDKPVSFHKFPLTRPSLCKEWEAAVRRKNFKPTKYSSICSEHFTPDCFKEECNNKLLKENAVPTIFLCTEPHDKKEDLLEPQEQLPPPPLPPPVSQVDAAIGLLMPPLQTPVNLSVFCDHNYTVEDTMHQRKRIHQLEQQVEKLRKKLKTAQQRCRRQERQLEKLKEVVHFQKEKDDVSERGYVILPNDYFEIVEVPA [R65E], the THAP1 transcriptional activity came out at 0.629. With MVQSCSAYGCKNRYDKDKPVSFHKFPLTRPSLCKEWWAAVRRKNFKPTKYSSICSEHFTPDCFKRECNNKLLKENAVPTIFLCTEPHDKKEDLLEPQEQLPPPPLPPPVSQVDAAIGLLMPPLQTPVNLSVFCDHNYTVEDTMHQRKRIHQLEQQVEKLRKKLKTAQQRCRRQERQLEKLKEVVHFQKEKDDVSERGYVILPNDYFEIVEVPA [E37W], the THAP1 transcriptional activity turned out to be 0.0974. With MVQSCSAYGCKNRYDKDKPVSFHKFPLTRPSLCKEWEAAVRRKNFKPTKYSSICSEHFTPDCFKRECNNKLLKENAVPTIFLCTEPHDKKEDLLEPQEQLPPPPLPPPVSQVDAAIGLLMPPLQTPVNLSVFCDHNYTVEDTMHQRKRIHQLEQQVEKLRKKLKTAQQRCRRQERQLEKLKEVVHFQKEKDDVSERGYVILPNDYFEISEVPA [V209S], the THAP1 transcriptional activity amounted to 0.634. As to MVQSCSAYGCDNRYDKDKPVSFHKFPLTRPSLCKEWEAAVRRKNFKPTKYSSICSEHFTPDCFKRECNNKLLKENAVPTIFLCTEPHDKKEDLLEPQEQLPPPPLPPPVSQVDAAIGLLMPPLQTPVNLSVFCDHNYTVEDTMHQRKRIHQLEQQVEKLRKKLKTAQQRCRRQERQLEKLKEVVHFQKEKDDVSERGYVILPNDYFEIVEVPA [K11D], the THAP1 transcriptional activity was 0.0638. Turning to MVQSCSAYGCKNRYDKDKPVSFHKFPLTRPSLCKEWEAAVRRKNFKPTKYSSICSEHFTPDCFKRECNNKLLKENAVPTIFLCTEPHDKKEDLLEPQEQLPPPPLPPPVSQVDAAIGLLMPPLQTPVNLSVFCDHNYTVEDTMHQRKRIHILEQQVEKLRKKLKTAQQRCRRQERQLEKLKEVVHFQKEKDDVSERGYVILPNDYFEIVEVPA [Q151I], the THAP1 transcriptional activity amounted to 0.817.

For the variant MVQSCSAYGCKNRYDKDKPVSFHKFPLTRPSLCKEWEAAVRRKNFKPTKYSSICSEHFTPDCFKRECNNKLLKENAVPTIFLCTEPHDKKEDLLEPIEQLPPPPLPPPVSQVDAAIGLLMPPLQTPVNLSVFCDHNYTVEDTMHQRKRIHQLEQQVEKLRKKLKTAQQRCRRQERQLEKLKEVVHFQKEKDDVSERGYVILPNDYFEIVEVPA [Q97I], the THAP1 transcriptional activity is 2.53. Turning to MVQSCSAYGCKNRYDKDKPVSFHKFPLTRPSLCKEWEAAVRRKNFKPTKYSSICSEHFTPDCFKRECNNKLLKENAVPTIFLCTEPHDKKEDLLEPQEQLPPPPLPPPVSQVDAAIGLLMPPLQTAVNLSVFCDHNYTVEDTMHQRKRIHQLEQQVEKLRKKLKTAQQRCRRQERQLEKLKEVVHFQKEKDDVSERGYVILPNDYFEIVEVPA [P126A], the THAP1 transcriptional activity is 0.618.

Turning to MVQSCSAYGCKNRYDKDKPVSFHKFPLTRPSLCKEWEAAVRRKNFKPTKYSSICSEHFTPDCFKRECNNKLLKENAVPTIFLCTEPHDKKEDLLEPQEQLPPPPLPPPVSQVDAAIGLLMPPLQTPVNLSVFCDHNYTVEDTMHQRKRIHQLEQQVEKLRKKLKTAQQRCRRQERQLEKLKEVVHFQKEKDDVSEKGYVILPNDYFEIVEVPA [R196K], the THAP1 transcriptional activity is 0.966. As for MVQSCSAYGCKNRYDKDKPVSFHKFPLTRPSNCKEWEAAVRRKNFKPTKYSSICSEHFTPDCFKRECNNKLLKENAVPTIFLCTEPHDKKEDLLEPQEQLPPPPLPPPVSQVDAAIGLLMPPLQTPVNLSVFCDHNYTVEDTMHQRKRIHQLEQQVEKLRKKLKTAQQRCRRQERQLEKLKEVVHFQKEKDDVSERGYVILPNDYFEIVEVPA [L32N], the THAP1 transcriptional activity came to 0.173. Consider MVQSCSAYGCKNRYDKDKPVSFHKFPLTRPSLCKEWEAAVRRKNFKPTKYSWICSEHFTPDCFKRECNNKLLKENAVPTIFLCTEPHDKKEDLLEPQEQLPPPPLPPPVSQVDAAIGLLMPPLQTPVNLSVFCDHNYTVEDTMHQRKRIHQLEQQVEKLRKKLKTAQQRCRRQERQLEKLKEVVHFQKEKDDVSERGYVILPNDYFEIVEVPA [S52W], for which the THAP1 transcriptional activity is 0.089.

Take MVQSCSAYGCKNRYDKDKPVSFHKFPLTRPSLCKEWEAAVRRKNFKPTKYSSICSEHFTPDCFKRECNNKLLKENAVPTIFLCTEPHDKQEDLLEPQEQLPPPPLPPPVSQVDAAIGLLMPPLQTPVNLSVFCDHNYTVEDTMHQRKRIHQLEQQVEKLRKKLKTAQQRCRRQERQLEKLKEVVHFQKEKDDVSERGYVILPNDYFEIVEVPA [K90Q]: the THAP1 transcriptional activity was 2.35. Regarding MVQSCSAYGCKNRYDKDKPVSFHKFPLTRPSLCKEWEAAVRSKNFKPTKYSSICSEHFTPDCFKRECNNKLLKENAVPTIFLCTEPHDKKEDLLEPQEQLPPPPLPPPVSQVDAAIGLLMPPLQTPVNLSVFCDHNYTVEDTMHQRKRIHQLEQQVEKLRKKLKTAQQRCRRQERQLEKLKEVVHFQKEKDDVSERGYVILPNDYFEIVEVPA [R42S], the THAP1 transcriptional activity came out at 0.158. Take MVQSCSAYGCKNRYDKDKPVSFHKFPLTRPSLCKEWEAAVRAKNFKPTKYSSICSEHFTPDCFKRECNNKLLKENAVPTIFLCTEPHDKKEDLLEPQEQLPPPPLPPPVSQVDAAIGLLMPPLQTPVNLSVFCDHNYTVEDTMHQRKRIHQLEQQVEKLRKKLKTAQQRCRRQERQLEKLKEVVHFQKEKDDVSERGYVILPNDYFEIVEVPA [R42A]: the THAP1 transcriptional activity was determined as 0.127.

Take MVQSCSAYGCKNRYDKDKPVSFHKFPLTRPSLCKEWEAAVRRKNFKPTKYSSICSEHFTPDCFKRECNNKLLKENAVPTIFLCTEPHDKKEDLLEPQEQLPPPPLPPPVSQVDAAIGLLMPPLQTPVNLSVFCDHNYTVEDTMHQRKRIHQLEQQVEKLRDKLKTAQQRCRRQERQLEKLKEVVHFQKEKDDVSERGYVILPNDYFEIVEVPA [K161D]: the THAP1 transcriptional activity was 0.188.
